Data: patent US20250221953A1 (The University of Chicago, priority 2022, published 2025)

System: Jurkat T cells
Type: cell-based, human
Conditions: IL-2 production level in treated group compared to control group; 48 hours treatment, then anti-CD3/anti-CD28 12 hours
Description: Two preliminary screens were designed and performed.
To construct “blood chemical compound library for cell-based screening purposes, components such as antibodies that are difficult to distinguish due to a wide variety, and some supplements that only function at a whole organism level including fish oils and herbs were excluded. Physiological ranges of serum levels of individual blood chemicals are available in the human metabolome database (https://hmdb.ca/) and applied in the experimental design. For first screen 1a, Jurkat T cells were treated with blood chemical library for 48 hours and then activated with 2.5 μg/mL anti-CD3 and 0.5 μg/mL anti-CD28 antibodies for another 12 hours, followed by measurement of IL-2 level in medium supernatant using ELISA kit (Biolegend). For first screen 1b, 1×10^5 PD-1^+ Jurkat T cells were co-cultured with 2×10^4 H596 (PD-L1^+) cells in a well of 96-well plate for 60 hours, and then activated with 2.5 μg/mL anti-CD3 and 0.5 μg/mL anti-CD28 antibodies for another 12 hours, followed by measurement of IL-2 level in medium supernatant using ELISA kit. Please also refer to Resources Table and Table 1-2 for more details.

B1: LIPASE FROM PORCINE PANCREAS (protein, UniProt P00591 1-450, looked up)
Pancreatic triacylglycerol …: SEVCFPRLGCFSDDAPWAGIVQRPLKILPWSPKDVDTRFLLYTNQNQNNYQELVADPSTITNSNFRMDRKTRFIIHGFIDKGEEDWLSNICKNLFKVESVNCICVDWKGGSRTGYTQASQNIRIVGAEVAYFVEVLKSSLGYSPSNVHVIGHSLGSHAAGEAGRRTNGTIERITGLDPAEPCFQGTPELVRLDPSDAKFVDVIHTDAAPIIPNLGFGMSQTVGHLDFFPNGGKQMPGCQKNILSQIVDIDGIWEGTRDFVACNHLRSYKYYADSILNPDGFAGFPCDSYNVFTANKCFPCPSEGCPQMGHYADRFPGKTNGVSQVFYLNTGDASNFARWRYKVSVTLSGKKVTGHILVSLFGNEGNSRQYEIYKGTLQPDNTHSDEFDSDVEVGDLQKVKFIWYNNNVINPTLPRVGASKITVERNDGKVYDFCSQETVREEVLLTLNPC
Relative changed percentage (%): −9.403%
